In publication PMC8391104, “Molecular mechanism of Mad1 kinetochore targeting by phosphorylated Bub1” (EMBO Reports, 2021):

Columns and labels:
Mad1 CTD, 597-718 = Mad1 CTD, 597-718 (UniProt Q9Y6D9); assay: 1H,15N HSQC titration of 15N-Mad1CTD; settings: reference: non-phosphorylated peptide; sites S459,T461
[1] = target: Mad1 C-terminal domain (Mad1^CTD) homodimer, residues 597-718 (human) (UniProt Q9Y6D9); assay: NMR titration; 1H,15N 2D HSQC of 15N-labelled Mad1^CTD with unlabelled peptide added (dimer to peptide 1:0.5 to 1:4); 50 mM HEPES pH 7.0, 100 mM NaCl, 2 mM TCEP, 0.02% NaN3, 298 K
[2] = target: Mad1 C-terminal domain (Mad1^CTD) homodimer, residues 597-718 (human) (UniProt Q9Y6D9); assay: crystal structure; co-crystallisation of Mad1^CTD (0.35 mM) with Bub1^CD1 peptide at 2.5 mM in 5% DMSO (or 5 mM in 10% DMSO); 10% isopropanol, 0.1 M Na HEPES pH 7.5, 20% PEG 4000; 21°C
[3] = target: Mad1 C-terminal domain (Mad1^CTD) homodimer, residues 597-718 (human) (UniProt Q9Y6D9); assay: ITC; Bub1^CD1 peptide (0.3-1.5 mM) titrated into Mad1 (30-100 µM) in the cell; 20°C; 20 mM HEPES pH 7.5, 100 mM NaCl, 1 mM TCEP; single-site model; stoichiometry counted on dimeric Mad1^CTD
[4] = target: Mad1 C-terminal domain (Mad1^CTD) homodimer, residues 597-718 (human) (UniProt Q9Y6D9); assay: NMR titration; 31P 1D spectra of phosphorylated Bub1^CD1 peptide with Mad1^CTD dimer at 1:1 and 1:2 dimer to peptide, around 0.25 to 0.5 mM of each; 50 mM HEPES pH 7.0, 100 mM NaCl, 2 mM TCEP, 0.02% NaN3, 298 K

Mad1 C-terminal domain (Mad1^CTD) homodimer, residues 597-718 (human), sequence (Q9Y6D9 597-718): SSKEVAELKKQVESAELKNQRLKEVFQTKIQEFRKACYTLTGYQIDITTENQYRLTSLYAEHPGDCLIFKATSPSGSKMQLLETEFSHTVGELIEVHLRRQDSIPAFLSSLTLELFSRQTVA

binding against the reference (Mad1 CTD, 597-718) | stoichiometry N (peptide per Mad1^CTD dimer) [1] | stoichiometry N (peptides per Mad1^CTD homodimer) [2] | Kd [3] [nM] | stoichiometry N (peptide per Mad1 dimer) [3] | stoichiometry N (peptide per Mad1^CTD dimer) [4] | Substance
gained |  |  |  |  |  | Bub1 CD1, 455-479 (from UniProt O43683) phosphorylated peptide
 | 1 | 2 | 2700 | 1 | 1 | doubly phosphorylated Bub1^CD1 peptide (pSer459-pThr461)
 |  |  | 3300 |  |  | singly phosphorylated Bub1^CD1 peptide (pThr461)
